{"source": "patent US20220002427A1", "about": "(ENGMAB SARL, published 2022)", "binders": {"B1": {"name": "21-TCBcv (bispecific antibody, human IgG1, kappa, L234A L235A)", "heavy 1": "not shown", "heavy 2": "EVQLLESGGGLVQPGGSLRLSCAASGFTFSDNAMGWVRQAPGKGLEWVSAISGPGSSTYYADSVKGRFTISRDNSKNTLYLQMNSLRAEDTAVYYCAKVLGWFDYWGQGTLVTVSSASTKGPSVFPLAPSSKSTSGGTAALGCLVEDYFPEPVTVSWNSGALTSGVHTFPAVLQSSGLYSLSSVVTVPSSSLGTQTYICNVNHKPSNTKVDEKVEPKSCDKTHTCPPCPAPEAAGGPSVFLFPPKPKDTLMISRTPEVTCVVVDVSHEDPEVKFNWYVDGVEVHNAKTKPREEQYNSTYRVVSVLTVLHQDWLNGKEYKCKVSNKALGAPIEKTISKAKGQPREPQVCTLPPSRDELTKNQVSLSCAVKGFYPSDIAVEWESNGQPENNYKTTPPVLDSDGSFFLVSKLTVDKSRWQQGNVFSCSVMHEALHNHYTQKSLSLSPGK", "light 1": "EIVLTQSPGTLSLSPGERATLSCRASQSVSEYYLAWYQQKPGQAPRLLIEHASTRATGIPDRFSGSGSGTDFTLTISRLEPEDFAVYYCQQYGYPPDFTFGQGTKVEIKRTVAAPSVFIFPPSDRKLKSGTASVVCLLNNFYPREAKVQWKVDNALQSGNSQESVTEQDSKDSTYSLSSTLTLSKADYEKHKVYACEVTHQGLSSPVTKSFNRGEC", "light 2": "EVQLLESGGGLVQPGGSLRLSCAASGFTFSTYAMNWVRQAPGKGLEWVSRIRSKYNNYATYYADSVKGRFTISRDDSKNTLYLQMNSLRAEDTAVYYCVRHGNFGNSYVSWFAYWGQGTLVTVSSASVAAPSVFIFPPSDEQLKSGTASVVCLLNNFYPREAKVQWKVDNALQSGNSQESVTEQDSKDSTYSLSSTLTLSKADYEKHKVYACEVTHQGLSSPVTKSFNRGEC", "notes": "also called anti-BCMA/anti-CD3 T cell bispecific antibody of Mab21"}}, "key": {"human BCMA on cells [1]": {"molecular_target": "T1, human BCMA on cells (human, UniProt Q02223 1-184)", "T1 sequence (looked up)": "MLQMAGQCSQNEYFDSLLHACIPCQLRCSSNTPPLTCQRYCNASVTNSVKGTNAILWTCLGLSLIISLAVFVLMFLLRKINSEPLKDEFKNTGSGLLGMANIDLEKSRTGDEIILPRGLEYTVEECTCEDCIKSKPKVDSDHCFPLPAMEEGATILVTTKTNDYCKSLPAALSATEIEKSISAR", "experiment": "cell-based or functional assay"}, "human BCMA on cells [2]": {"molecular_target": "T1, human BCMA on cells", "experiment": "cell-based or functional assay", "remark": "listed apart in the source"}, "human BCMA on cells [3]": {"molecular_target": "T1, human BCMA on cells", "experiment": "flow cytometry on RPMI-8226 multiple myeloma cells, PE anti-human Fc F(ab')2 detection; estimated EC50", "method": "(§1) Briefly, cultured cells are harvested, counted and cell viability was evaluated using ViCell. Viable cells are then adjusted to 2×10⁶ cells per ml in BSA-containing FACS Stain Buffer (BD Biosciences). 100 μl of this cell suspension were further aliquoted per well into a round-bottom 96-well plate and incubated with 30 μl of the anti-BCMA antibodies or corresponding IgG control for 30 min at 4° c. All Anti-BCMA/anti-CD3 TCB antibodies (and TCB controls) were titrated and analyzed in final concentration range between 1-300 nM. Cells were then centrifuged (5 min, 350×g), washed with 120 μl/well FACS Stain Buffer (BD Biosciences), resuspended and incubated for an additional 30 min at 4° C. with fluorochrome-conjugated PE-conjugated AffiniPure F(ab′)2 Fragment goat anti-human IgG Fc Fragment Specific (Jackson Immuno Research Lab; 109-116-170). Cells were then washed twice with Stain Buffer (BD Biosciences), fixed using 100 ul BD Fixation buffer per well (#BD Biosciences, 554655) at 4° C. for 20 min, resuspended in 120 μl FACS buffer and analyzed using BD FACS CantoII."}, "human BCMA on cells [4]": {"molecular_target": "T1, human BCMA on cells", "experiment": "cell-based or functional assay", "remark": "listed apart in the source"}, "human BCMA on cells [5]": {"molecular_target": "T1, human BCMA on cells", "experiment": "flow cytometry on H929 multiple myeloma cells, PE anti-human Fc F(ab')2 detection; estimated EC50", "method": "as §1"}}, "note": "“And” between values parts separate entries of the source, which are not always exact repeats. Equal entries are not always repeated."}
{"binder": "B1", "values": [{"measurement": "EC50 of redirected T-cell killing of RPMI-8226 cells (LDH release), Donor 2", "setting": "human BCMA on cells [1]", "result": 0.0413, "unit": "nM"}, {"measurement": "EC50 of redirected T-cell killing of RPMI-8226 cells (LDH release), Donor 3", "setting": "human BCMA on cells [1]", "result": 0.0088, "unit": "nM"}, {"measurement": "EC50 of redirected T-cell killing of RPMI-8226 cells (LDH release), Donor 4", "setting": "human BCMA on cells [1]", "result": 0.004, "unit": "nM"}, {"measurement": "EC50 of redirected T-cell killing of RPMI-8226 cells (LDH release), Donor 5", "setting": "human BCMA on cells [1]", "result": 0.0084, "unit": "nM"}, {"measurement": "EC50 of redirected T-cell killing of L363 cells (LDH release), Donor 1", "setting": "human BCMA on cells [2]", "result": 0.0836, "unit": "nM"}, {"measurement": "EC50 of redirected T-cell killing of L363 cells (LDH release), Donor 2", "setting": "human BCMA on cells [2]", "result": 0.0384, "unit": "nM"}, {"measurement": "EC50 of redirected T-cell killing of L363 cells (LDH release), Donor 3", "setting": "human BCMA on cells [2]", "result": 0.0189, "unit": "nM"}, {"measurement": "EC50 of redirected T-cell killing of L363 cells (LDH release), Donor 4", "setting": "human BCMA on cells [2]", "result": 0.0191, "unit": "nM"}, {"measurement": "EC50 of redirected T-cell killing of L363 cells (LDH release), Donor 5", "setting": "human BCMA on cells [2]", "result": 0.0464, "unit": "nM"}, {"measurement": "EC50", "setting": "human BCMA on cells [3]", "result": "6.8 nM and 0.982 µg/mL"}, {"measurement": "EC50 of redirected T-cell killing of H929 cells (LDH release), Donor 1", "setting": "human BCMA on cells [4]", "result": 0.0971, "unit": "nM"}, {"measurement": "EC50 of redirected T-cell killing of H929 cells (LDH release), Donor 3", "setting": "human BCMA on cells [4]", "result": 0.0421, "unit": "nM"}, {"measurement": "EC50 of redirected T-cell killing of H929 cells (LDH release), Donor 4", "setting": "human BCMA on cells [4]", "result": 0.0539, "unit": "nM"}, {"measurement": "EC50 of redirected T-cell killing of H929 cells (LDH release), Donor 5", "setting": "human BCMA on cells [4]", "result": 0.0387, "unit": "nM"}, {"measurement": "EC50", "setting": "human BCMA on cells [5]", "result": "11 nM and 1.59 µg/mL"}]}
